The source of these data is paper PMC9992173, “Mapping of the extracellular RBP4 ligand binding domain on the RBPR2 receptor for Vitamin A transport” (Frontiers in Cell and Developmental Biology, 2023).

For one assay, the target named is RBP4 (UniProt P02753). To be noted: cited from earlier work.
The target of assay [1] is Recombinant mouse RBP4 with 6XHis Tag (mouse) (UniProt Q00724). As to the kind of experiment: SPR; mouse RBP4 amine-coupled to a CM5 chip (target 1,200 RU), Biacore S200; peptides as analytes, 0.8-26.6 uM; running buffer PBST (0.05% Tween20); 25 C; contact 120 s, dissociation 300 s; Kd from the site-specific binding fit Y=(Bmax*X)/(Kd+X). (SPR reads the build-up and loss of mass on a sensor chip optically.)

The Kd is the concentration at which binding is half-saturated. With STRA6 (from UniProt Q9BX79), in the assay with RBP4, the Kd is 22.4 µM.

Regarding “mouse RBPR2-L296S mutant peptide (from UniProt Q9DBN1 280-321)”, the Kd in assay [1] stood at 21.3 µM.

For “mouse RBPR2-S294A mutant peptide (from UniProt Q9DBN1 280-321)”, the Kd in assay [1] was determined as 89.3 µM.

Turning to “mouse RBPR2-Y295P mutant peptide (from UniProt Q9DBN1 280-321)”, in assay [1], the Kd stood at 34.9 µM.
